Molecular target: recombinant protein TCRVB 6-5 (human)
Experiment: SPR, compared with BJM0277

Sequence of recombinant protein TCRVB 6-5 (human) (TCR beta, as listed by the source): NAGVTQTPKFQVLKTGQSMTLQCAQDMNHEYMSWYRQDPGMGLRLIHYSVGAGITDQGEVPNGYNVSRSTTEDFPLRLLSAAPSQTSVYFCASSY

B1: A-H.45 (bispecific antibody, part only; not given: anti-CD19 arm, constant regions, linkers, not shown: another chain or arm of the molecule; a dimerising Fc or GST; small tags and cut ends)
scFv: QVQLVQSGAEVKKPGSSVKVSCKASGYSFTTYYIHWVRQAPGQGLEWMGWFSAGSGNTKYNEKFKGRVTITADTSTSTAYMELSSLRSEDTAVYYCAVSYYSYDVLDYWGQGTTVTVSSGGGGSGGGGSGGGGSGGGGSDIQMTQSPSFLSASVGDRVTITCKASQNVGINVVWHQQKPGKAPKALIYSSSHRYSGVPSRFSGSGSGTEFTLTISSLQPEDFATYFCQQFKSYPLTFGQGTKLEIK
For B1, the fold greater affinity than BJM0277 was 35 fold.
